US20210388087A1 (Chugai, published 2021)

T1: Human CD3eg linker (human)
T1 construct: Single chain: epsilon and gamma subunits of human CD3 joined by a 29-mer linker, Flag-tag at the C-terminus; also called recombinant human CD3
T1 chain: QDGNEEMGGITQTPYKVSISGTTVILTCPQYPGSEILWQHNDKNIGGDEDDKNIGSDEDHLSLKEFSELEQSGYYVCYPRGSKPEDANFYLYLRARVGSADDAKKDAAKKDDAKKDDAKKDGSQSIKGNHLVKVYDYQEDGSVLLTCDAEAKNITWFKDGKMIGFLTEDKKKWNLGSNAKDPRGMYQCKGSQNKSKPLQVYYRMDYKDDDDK


Molecular target: T1, Human CD3eg linker
Assay: Biacore SPR, vs template H183/L072

Row | Binder | fold change of affinity [fold]
1 | H183/L072 VH T28M (antibody, name in Kabat numbering, V domains shown) VH: QVQLVESGGGLVQPGRSLRLSCAASGFMFSNAWMHWVRQAPGKGLEWVAQIKDKGNAYAAYYAPSVKGRFTISRDDSKNSIYLQMNSLKTEDTAVYYCHYVHYASASTVLPAFGVDAWGQGTTVTVSS VL: DIVMTQSPLSLPVTPGEPASISCQASQELVHMNRNTYLHWYQQKPGQAPRLLIYKVSNRFPGVPDRFSGSGSGTDFTLKISRVEAEDVGVYYCAQGTSVPFTFGQGTKLEIK | 0.8
2 | H183/L072 VH T28V (antibody, name in Kabat numbering, V domains shown) VH: QVQLVESGGGLVQPGRSLRLSCAASGFVFSNAWMHWVRQAPGKGLEWVAQIKDKGNAYAAYYAPSVKGRFTISRDDSKNSIYLQMNSLKTEDTAVYYCHYVHYASASTVLPAFGVDAWGQGTTVTVSS VL: DIVMTQSPLSLPVTPGEPASISCQASQELVHMNRNTYLHWYQQKPGQAPRLLIYKVSNRFPGVPDRFSGSGSGTDFTLKISRVEAEDVGVYYCAQGTSVPFTFGQGTKLEIK | 1
3 | H183/L072 VH T28P (antibody, name in Kabat numbering, V domains shown) VH: QVQLVESGGGLVQPGRSLRLSCAASGFPFSNAWMHWVRQAPGKGLEWVAQIKDKGNAYAAYYAPSVKGRFTISRDDSKNSIYLQMNSLKTEDTAVYYCHYVHYASASTVLPAFGVDAWGQGTTVTVSS VL: DIVMTQSPLSLPVTPGEPASISCQASQELVHMNRNTYLHWYQQKPGQAPRLLIYKVSNRFPGVPDRFSGSGSGTDFTLKISRVEAEDVGVYYCAQGTSVPFTFGQGTKLEIK | 0.7
4 | H183/L072 VH T28R (antibody, name in Kabat numbering, V domains shown) VH: QVQLVESGGGLVQPGRSLRLSCAASGFRFSNAWMHWVRQAPGKGLEWVAQIKDKGNAYAAYYAPSVKGRFTISRDDSKNSIYLQMNSLKTEDTAVYYCHYVHYASASTVLPAFGVDAWGQGTTVTVSS VL: DIVMTQSPLSLPVTPGEPASISCQASQELVHMNRNTYLHWYQQKPGQAPRLLIYKVSNRFPGVPDRFSGSGSGTDFTLKISRVEAEDVGVYYCAQGTSVPFTFGQGTKLEIK | 2.9
5 | H183/L072 VH T28N (antibody, name in Kabat numbering, V domains shown) VH: QVQLVESGGGLVQPGRSLRLSCAASGFNFSNAWMHWVRQAPGKGLEWVAQIKDKGNAYAAYYAPSVKGRFTISRDDSKNSIYLQMNSLKTEDTAVYYCHYVHYASASTVLPAFGVDAWGQGTTVTVSS VL: DIVMTQSPLSLPVTPGEPASISCQASQELVHMNRNTYLHWYQQKPGQAPRLLIYKVSNRFPGVPDRFSGSGSGTDFTLKISRVEAEDVGVYYCAQGTSVPFTFGQGTKLEIK | 0.8
6 | H183/L072 VH T28S (antibody, name in Kabat numbering, V domains shown) VH: QVQLVESGGGLVQPGRSLRLSCAASGFSFSNAWMHWVRQAPGKGLEWVAQIKDKGNAYAAYYAPSVKGRFTISRDDSKNSIYLQMNSLKTEDTAVYYCHYVHYASASTVLPAFGVDAWGQGTTVTVSS VL: DIVMTQSPLSLPVTPGEPASISCQASQELVHMNRNTYLHWYQQKPGQAPRLLIYKVSNRFPGVPDRFSGSGSGTDFTLKISRVEAEDVGVYYCAQGTSVPFTFGQGTKLEIK | 1.2
7 | H183/L072 VH T28Q (antibody, name in Kabat numbering, V domains shown) VH: QVQLVESGGGLVQPGRSLRLSCAASGFQFSNAWMHWVRQAPGKGLEWVAQIKDKGNAYAAYYAPSVKGRFTISRDDSKNSIYLQMNSLKTEDTAVYYCHYVHYASASTVLPAFGVDAWGQGTTVTVSS VL: DIVMTQSPLSLPVTPGEPASISCQASQELVHMNRNTYLHWYQQKPGQAPRLLIYKVSNRFPGVPDRFSGSGSGTDFTLKISRVEAEDVGVYYCAQGTSVPFTFGQGTKLEIK | 0

Continued, values first:

Row | fold change of affinity [fold] | Binder
8 | 1.1 | H183/L072 VH V63A (antibody, name in Kabat numbering, V domains shown) VH: QVQLVESGGGLVQPGRSLRLSCAASGFTFSNAWMHWVRQAPGKGLEWVAQIKDKGNAYAAYYAPSAKGRFTISRDDSKNSIYLQMNSLKTEDTAVYYCHYVHYASASTVLPAFGVDAWGQGTTVTVSS VL: DIVMTQSPLSLPVTPGEPASISCQASQELVHMNRNTYLHWYQQKPGQAPRLLIYKVSNRFPGVPDRFSGSGSGTDFTLKISRVEAEDVGVYYCAQGTSVPFTFGQGTKLEIK
9 | 0.9 | H183/L072 VH T28W (antibody, name in Kabat numbering, V domains shown) VH: QVQLVESGGGLVQPGRSLRLSCAASGFWFSNAWMHWVRQAPGKGLEWVAQIKDKGNAYAAYYAPSVKGRFTISRDDSKNSIYLQMNSLKTEDTAVYYCHYVHYASASTVLPAFGVDAWGQGTTVTVSS VL: DIVMTQSPLSLPVTPGEPASISCQASQELVHMNRNTYLHWYQQKPGQAPRLLIYKVSNRFPGVPDRFSGSGSGTDFTLKISRVEAEDVGVYYCAQGTSVPFTFGQGTKLEIK
10 | 1 | H183/L072 VH T100bM (antibody, name in Kabat numbering, V domains shown) VH: QVQLVESGGGLVQPGRSLRLSCAASGFTFSNAWMHWVRQAPGKGLEWVAQIKDKGNAYAAYYAPSVKGRFTISRDDSKNSIYLQMNSLKTEDTAVYYCHYVHYASASMVLPAFGVDAWGQGTTVTVSS VL: DIVMTQSPLSLPVTPGEPASISCQASQELVHMNRNTYLHWYQQKPGQAPRLLIYKVSNRFPGVPDRFSGSGSGTDFTLKISRVEAEDVGVYYCAQGTSVPFTFGQGTKLEIK
11 | 1.4 | H183/L072 VH V63I (antibody, name in Kabat numbering, V domains shown) VH: QVQLVESGGGLVQPGRSLRLSCAASGFTFSNAWMHWVRQAPGKGLEWVAQIKDKGNAYAAYYAPSIKGRFTISRDDSKNSIYLQMNSLKTEDTAVYYCHYVHYASASTVLPAFGVDAWGQGTTVTVSS VL: DIVMTQSPLSLPVTPGEPASISCQASQELVHMNRNTYLHWYQQKPGQAPRLLIYKVSNRFPGVPDRFSGSGSGTDFTLKISRVEAEDVGVYYCAQGTSVPFTFGQGTKLEIK
12 | 1.1 | H183/L072 VH T100bA (antibody, name in Kabat numbering, V domains shown) VH: QVQLVESGGGLVQPGRSLRLSCAASGFTFSNAWMHWVRQAPGKGLEWVAQIKDKGNAYAAYYAPSVKGRFTISRDDSKNSIYLQMNSLKTEDTAVYYCHYVHYASASAVLPAFGVDAWGQGTTVTVSS VL: DIVMTQSPLSLPVTPGEPASISCQASQELVHMNRNTYLHWYQQKPGQAPRLLIYKVSNRFPGVPDRFSGSGSGTDFTLKISRVEAEDVGVYYCAQGTSVPFTFGQGTKLEIK
13 | 1.1 | H183/L072 VH T100bP (antibody, name in Kabat numbering, V domains shown) VH: QVQLVESGGGLVQPGRSLRLSCAASGFTFSNAWMHWVRQAPGKGLEWVAQIKDKGNAYAAYYAPSVKGRFTISRDDSKNSIYLQMNSLKTEDTAVYYCHYVHYASASPVLPAFGVDAWGQGTTVTVSS VL: DIVMTQSPLSLPVTPGEPASISCQASQELVHMNRNTYLHWYQQKPGQAPRLLIYKVSNRFPGVPDRFSGSGSGTDFTLKISRVEAEDVGVYYCAQGTSVPFTFGQGTKLEIK
14 | 1.1 | H183/L072 VH T100bL (antibody, name in Kabat numbering, V domains shown) VH: QVQLVESGGGLVQPGRSLRLSCAASGFTFSNAWMHWVRQAPGKGLEWVAQIKDKGNAYAAYYAPSVKGRFTISRDDSKNSIYLQMNSLKTEDTAVYYCHYVHYASASLVLPAFGVDAWGQGTTVTVSS VL: DIVMTQSPLSLPVTPGEPASISCQASQELVHMNRNTYLHWYQQKPGQAPRLLIYKVSNRFPGVPDRFSGSGSGTDFTLKISRVEAEDVGVYYCAQGTSVPFTFGQGTKLEIK
15 | 1.4 | H183/L072 VH T100bI (antibody, name in Kabat numbering, V domains shown) VH: QVQLVESGGGLVQPGRSLRLSCAASGFTFSNAWMHWVRQAPGKGLEWVAQIKDKGNAYAAYYAPSVKGRFTISRDDSKNSIYLQMNSLKTEDTAVYYCHYVHYASASIVLPAFGVDAWGQGTTVTVSS VL: DIVMTQSPLSLPVTPGEPASISCQASQELVHMNRNTYLHWYQQKPGQAPRLLIYKVSNRFPGVPDRFSGSGSGTDFTLKISRVEAEDVGVYYCAQGTSVPFTFGQGTKLEIK
